Data on 12 molecules can be found in US5459063A, “Plasmodium falciparum ribonucleotide reductase DNA” (priority 1993, dated 1995).

Read-outs that look alike come from different tables or passages of the source. Ends that are not written are not given here.

In experiment [1] the target is T1, calf thymus/mouse ribonucleotide reductase (mammalian RR) (Bos taurus, UniProt Q32LP1).
T1 sequence (Q32LP1 1-791): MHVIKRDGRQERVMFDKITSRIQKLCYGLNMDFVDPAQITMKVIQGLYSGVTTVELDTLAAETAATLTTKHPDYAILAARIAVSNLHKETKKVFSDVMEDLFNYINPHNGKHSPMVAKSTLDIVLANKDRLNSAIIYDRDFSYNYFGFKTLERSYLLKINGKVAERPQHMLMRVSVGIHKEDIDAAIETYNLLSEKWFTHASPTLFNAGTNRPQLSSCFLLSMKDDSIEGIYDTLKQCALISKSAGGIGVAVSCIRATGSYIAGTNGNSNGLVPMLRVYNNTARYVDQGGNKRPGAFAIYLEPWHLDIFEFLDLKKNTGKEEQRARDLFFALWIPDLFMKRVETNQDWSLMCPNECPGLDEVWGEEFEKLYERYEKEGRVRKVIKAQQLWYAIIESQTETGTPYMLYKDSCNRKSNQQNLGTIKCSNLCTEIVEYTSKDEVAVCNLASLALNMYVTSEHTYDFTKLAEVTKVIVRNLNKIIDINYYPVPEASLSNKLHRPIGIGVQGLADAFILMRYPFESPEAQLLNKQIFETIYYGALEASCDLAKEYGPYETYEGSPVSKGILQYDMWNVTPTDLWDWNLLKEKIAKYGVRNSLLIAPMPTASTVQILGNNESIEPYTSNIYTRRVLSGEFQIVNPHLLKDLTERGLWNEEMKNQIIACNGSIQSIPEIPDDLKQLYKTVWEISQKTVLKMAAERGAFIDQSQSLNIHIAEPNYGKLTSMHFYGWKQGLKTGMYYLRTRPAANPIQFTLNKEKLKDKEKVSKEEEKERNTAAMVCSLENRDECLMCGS
Kind of experiment: biochemical. An excerpt: From two to four assays were run

In experiment [2] the target is T2, human RR (Homo sapiens, UniProt P23921).
T2 sequence (P23921 1-792): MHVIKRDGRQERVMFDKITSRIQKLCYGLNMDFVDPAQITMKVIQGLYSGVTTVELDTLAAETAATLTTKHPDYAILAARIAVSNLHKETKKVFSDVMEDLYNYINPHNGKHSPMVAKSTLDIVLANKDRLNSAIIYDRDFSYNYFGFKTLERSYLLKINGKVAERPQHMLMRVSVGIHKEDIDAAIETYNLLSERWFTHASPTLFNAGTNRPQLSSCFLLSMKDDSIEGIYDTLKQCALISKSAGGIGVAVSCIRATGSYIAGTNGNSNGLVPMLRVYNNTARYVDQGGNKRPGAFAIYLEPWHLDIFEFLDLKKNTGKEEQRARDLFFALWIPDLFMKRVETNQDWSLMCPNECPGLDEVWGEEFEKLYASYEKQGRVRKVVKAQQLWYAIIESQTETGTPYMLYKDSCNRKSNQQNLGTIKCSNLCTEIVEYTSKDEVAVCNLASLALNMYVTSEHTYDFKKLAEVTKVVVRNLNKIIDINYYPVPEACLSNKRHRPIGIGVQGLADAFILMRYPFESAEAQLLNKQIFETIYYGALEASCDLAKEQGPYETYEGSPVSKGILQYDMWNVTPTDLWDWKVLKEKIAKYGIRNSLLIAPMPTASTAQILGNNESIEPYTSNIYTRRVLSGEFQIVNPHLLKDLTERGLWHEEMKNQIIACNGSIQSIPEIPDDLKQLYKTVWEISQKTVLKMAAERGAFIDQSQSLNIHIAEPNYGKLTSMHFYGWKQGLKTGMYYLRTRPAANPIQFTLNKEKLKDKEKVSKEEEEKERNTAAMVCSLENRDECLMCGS
Conditions: background, "about"; cited from earlier work.

Experiment [3] concerns the target calf thymus R1 (calf).
Experiment [4] addresses S. cerevisiae (yeast) RR (S. cerevisiae).
Experiment [5] has as its target calf thymus R1 (calf). This is another data set of the same source.
Experiment [6] deals with calf thymus R1 (calf). This is another data set of the same source.

As a reminder, the IC50 is the point on the concentration scale where inhibition reaches its midpoint. Take “Ac-FTLDADF [Peptide 4, Ac- (FTLDADF), reference compound]”: the IC50 is 8 to 20 µM in experiment [1]; 8 to 20 µM in experiment [1] (IC50, Mammalian RR, Table 5, mammalian RR, Dixon plots); 10 to 20 µM in experiment [1] (IC50 on mammalian RR activity, Example 54 text, peptide bound to purified calf thymus R1 before adding recombinant mouse R2); 10 to 20 µM in experiment [2]. Molecule Ac-FTLDAAF [Ac-(FTLDAAF)] showed a Percent RI (percent relative inhibitory potency), mammalian RR activity in experiment [3] of 28%. The molecule Ac-AGAFTFNEDF showed an IC50, inhibition of Yeast RR activity in experiment [4] of 25 µM. Molecule Ac-FTLDADF [Ac-(FTLDADF)] yielded an IC50, inhibition of mammalian RR activity in experiment [5] of 10 to 20 µM. Moreover, the Percent RI (percent relative inhibitory potency), mammalian RR activity in experiment [3] amounted to 100%. Moreover, the IC50, inhibition of Yeast RR activity in experiment [4] turned out to be 25 µM.

With Ac-FTLDF [Ac-(FTLDF) (3 & 4 pos. del.)], the Percent RI (percent relative inhibitory potency), mammalian RR activity in experiment [3] turned out to be 2.5%. Ac-TFNEDF [Ac-(TFNEDF)] gave an IC50, inhibition of Yeast RR activity in experiment [4] of 600 µM. This molecule also showed an IC50, inhibition of mammalian RR activity in experiment [6] of 600 µM. The molecule Ac-FTFNEDF [Ac-(FTFNEDF)] had an IC50, inhibition of Yeast RR activity in experiment [4] of 25 µM. The IC50, inhibition of mammalian RR activity in experiment [6] was found to be 100 µM. For Ac-NSFTLDADF, in experiment [3], the Percent RI (percent relative inhibitory potency), mammalian RR activity is 100%. For Ac-FTLDADL [Ac-(FTLDADL)], in experiment [3], the IC50, inhibition of mammalian RR activity is greater than 400 µM and the Percent RI (percent relative inhibitory potency), mammalian RR activity was less than 3%. In experiment [3], Ac-FTLDDF [Ac-(FTLDDF) (3 pos. del.)] displayed an IC50, inhibition of mammalian RR activity of 322 µM and a Percent RI (percent relative inhibitory potency), mammalian RR activity of 3%. Turning to Ac-FTLDADFAA, in experiment [3], the IC50, inhibition of mammalian RR activity turned out to be 500 µM and the Percent RI (percent relative inhibitory potency), mammalian RR activity turned out to be 2.1%. Consider Ac-FLDADF [Ac-(FLDADF) (6 pos. del.)], for which, in experiment [3], the IC50, inhibition of mammalian RR activity came to 412 µM and the Percent RI (percent relative inhibitory potency), mammalian RR activity is 2.5%.
